Reference: the supplement of paper PMC10567573

B1: ZMYND11 (parent)
chain: YCSIKCQQEHWHAEHKRTCRRKR

Variants of: B1
Experiment: protein stability index of a GFP-peptide fusion (GPS, HEK-293T) (PSI 1-6); higher = more stable
Settings: c terminus: native
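Note: lentivirally expressed fusions sorted by FACS into six bins by GFP to DsRed ratio, PSI derived from sequencing read proportions per bin multiplied by bin number.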

Protein stability index, by site and new letter:
H15: I 1.95, N 2.4, L 3.01, F 1.44, Q 2.06, K 2.01, G 2.44, W 1.69, S 2.44, E 2.79, P 2.71, V 1.24, R 2.18, C 2.38, M 1.6, A 1.9, Y 2.01, T 2.41
E9: T 1.97, A 2.65, N 1.94, Y 1.93, G 2.89, W 2.37, K 2.17, C 3.31, S 1.68, M 1.53, H 2.78, D 2.31, P 2.11, I 2.11, R 2.6, V 2.93, Q 1.52, L 2.07, F 2.11
E14: V 2.13, G 3.11, T 2.36, Y 2.22, N 2.17, R 2.35, D 2.26, M 1.77, P 1.84, K 2.92, C 2.54, I 1.95, L 1.87, F 1.76, A 2.94, W 1.71, H 2.53, Q 2.26, S 2.48
H12: M 1.31, N 2.9, E 2.67, Q 2.36, G 2.73, Y 3.37, D 2.82, C 2.09, A 2.35, T 2.33, L 2.53, S 2.22, K 2.42, I 1.59, V 1.54, P 2.64, R 2.53
A13: M 2.86, N 2.78, P 1.9, T 1.98, I 2.58, W 1.32, R 2.49, K 2.65, Y 2.1, D 3.16, L 1.61, H 3.55, C 2.15, E 2.16, Q 2.18, G 2.62, V 2.89, F 1.83
R17: N 2.28, H 2.44, I 2.58, F 1.8, L 2.25, A 2.61, M 2.32, P 2.89, D 2.63, K 2.27, E 2.65, C 3.29
Q8: N 2.55, S 2.51, Y 2.08, V 1.78, L 1.72, T 1.86, R 2.2, M 2.48, P 2.46, W 1.85
W11: N 3.98, I 3.03, H 3.45, F 2.76, L 2.97, A 2.98, D 4.43, T 4.7, S 3.2, K 3.52, V 3.48, G 4.05, R 2.96, Y 3.32, Q 4.24, M 3.58, C 3.41, E 4.32, P 4.14
K16: I 2.18, T 2.71, V 2.39, W 1.74, L 2.42, N 2.11, E 2.46, Y 1.62, F 1.95, G 2.83, Q 2.34, D 2.43, H 2.84, C 2.74, M 2.16, S 2.56, R 1.76, A 2.53
H10: M 1.4, C 1.54, L 1.65, D 1.96, Q 2.45, N 3.26, A 1.95, T 2.07, I 1.92, E 2.18, S 2.36, K 2.12, V 1.11, P 2.1, R 3.33, G 2.81, Y 1.73
